Earlier results as cited in PMC8619967.
Like-named read-outs stand apart in the source and are kept apart here.

Columns and labels:
[1] = biological target: HIV-1 capsid (Human immunodeficiency virus 1) (UniProt O93182)
[2] = biological target: HIV-1 capsid (Human immunodeficiency virus 1) (UniProt O93182); remark: listed apart in the source
[3] = biological target: HIV-1 CA-NC nanotubes CA-NC (Human immunodeficiency virus 1) (UniProt O93182)
Sequence of HIV-1 CA-NC nanotubes CA-NC (Human immunodeficiency virus 1) (O93182 133-433): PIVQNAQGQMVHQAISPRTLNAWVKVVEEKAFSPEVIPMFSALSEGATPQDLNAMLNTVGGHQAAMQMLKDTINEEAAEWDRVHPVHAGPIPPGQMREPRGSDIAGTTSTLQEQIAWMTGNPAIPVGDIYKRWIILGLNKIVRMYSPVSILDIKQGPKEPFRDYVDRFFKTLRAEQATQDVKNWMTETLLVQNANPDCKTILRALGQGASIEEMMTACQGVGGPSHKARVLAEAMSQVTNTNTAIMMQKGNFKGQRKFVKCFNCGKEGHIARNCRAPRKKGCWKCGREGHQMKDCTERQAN

Sequence of HIV-1 capsid (Human immunodeficiency virus 1) (O93182 133-363): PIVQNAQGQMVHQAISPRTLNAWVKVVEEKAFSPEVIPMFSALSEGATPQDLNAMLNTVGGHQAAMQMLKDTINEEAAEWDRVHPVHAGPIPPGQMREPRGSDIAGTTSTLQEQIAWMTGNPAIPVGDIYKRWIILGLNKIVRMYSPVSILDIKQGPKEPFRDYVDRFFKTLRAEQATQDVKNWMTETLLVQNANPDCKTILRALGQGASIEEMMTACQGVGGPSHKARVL
Sequence of TRN-1 (Q92973 whole entry): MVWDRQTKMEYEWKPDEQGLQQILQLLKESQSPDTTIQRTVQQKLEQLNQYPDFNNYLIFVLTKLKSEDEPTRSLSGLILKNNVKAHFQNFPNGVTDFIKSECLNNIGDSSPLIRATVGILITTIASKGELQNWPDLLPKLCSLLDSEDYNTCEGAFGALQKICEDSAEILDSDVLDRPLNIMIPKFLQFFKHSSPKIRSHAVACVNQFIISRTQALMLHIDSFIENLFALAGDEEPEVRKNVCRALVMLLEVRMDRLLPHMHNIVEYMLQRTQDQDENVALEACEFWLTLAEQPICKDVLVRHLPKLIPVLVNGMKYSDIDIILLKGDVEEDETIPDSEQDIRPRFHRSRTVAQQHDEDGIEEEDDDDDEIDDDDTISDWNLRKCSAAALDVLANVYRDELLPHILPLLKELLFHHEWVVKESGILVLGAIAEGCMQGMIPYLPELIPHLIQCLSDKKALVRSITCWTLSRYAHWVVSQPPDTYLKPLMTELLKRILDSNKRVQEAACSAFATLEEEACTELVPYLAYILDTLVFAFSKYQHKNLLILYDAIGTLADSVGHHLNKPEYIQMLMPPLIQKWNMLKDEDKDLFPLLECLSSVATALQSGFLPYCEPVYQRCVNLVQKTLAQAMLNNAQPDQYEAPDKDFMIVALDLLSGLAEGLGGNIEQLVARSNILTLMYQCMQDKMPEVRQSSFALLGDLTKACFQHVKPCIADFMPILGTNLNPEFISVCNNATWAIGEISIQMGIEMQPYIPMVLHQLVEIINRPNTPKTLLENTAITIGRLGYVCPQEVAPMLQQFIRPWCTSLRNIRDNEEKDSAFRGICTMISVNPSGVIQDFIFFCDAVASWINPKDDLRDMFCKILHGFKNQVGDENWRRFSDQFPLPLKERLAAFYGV
Sequence of NUP358 CycH (P49792 3067-3223): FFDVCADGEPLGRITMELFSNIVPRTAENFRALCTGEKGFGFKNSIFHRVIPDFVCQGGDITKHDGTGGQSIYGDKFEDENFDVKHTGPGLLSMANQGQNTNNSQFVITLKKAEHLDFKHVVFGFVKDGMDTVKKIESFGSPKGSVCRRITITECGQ

**Q.** With NUP153 FG-motif (from UniProt P49790) as the substance, how does the Kd [1] read?
**A.** The Kd was 50 µM.

**Q.** For NUP358 CycH (from UniProt P49792), which Kd [2] is on record?
**A.** The Kd was 200 µM.

**Q.** With TRN-1 (from UniProt Q92973) as the substance, how does the Kd [3] read?
**A.** The Kd was 0.07 µM.
